Experimental data from patent US20260116920A1 (PEPTIDREAM, published 2026).
Starred links: 1 amine or outer side, 2 acyl side, 3 side chain; linkers in the order of their positions; H or OH if unused. Positions of bridges follow the written chain, without caps; N, C: chain ends. Non-standard residues stand in square brackets, D forms with d. Primed or numbered codes have the meaning given here. No end group written: not given here. *: point of attachment. MeF3COO(PEG4Me) = (S)-3-(3-((2,5,8,11-tetraoxatridecan-13-yl)carbamoyl)phenyl)-2-(methylamino)propanoic acid, COCCOCCOCCOCCNC(=O)c1cccc(C[C@@H](C(=O)[*:2])N(C)[*:1])c1; MePEG4c″ = K(MePEG4c) = (S)-20-amino-14-oxo-2,5,8,11-tetraoxa-15-azahenicosane-21-oic acid (Lys side chain acylated with methoxy-PEG4 acid), COCCOCCOCCOCCC(=O)*; MeF4COO(PEG4Me)″ = N-methyl-4-carboxy-Phe with the carboxyl amidated by a methyl-capped PEG4 amine, COCCOCCOCCOCCNC(=O)c1ccc(C[C@@H](C(=O)[*:2])N(C)[*:1])cc1; F3COO(PEG4Me) = (S)-3-(3-((2,5,8,11-tetraoxatridecan-13-yl)carbamoyl)phenyl)-2-aminopropanoic acid, COCCOCCOCCOCCNC(=O)c1cccc(C[C@H](N[*:1])C(=O)[*:2])c1; E(PEG8Me) = (S)-30-amino-27-oxo-2,5,8,11,14,17,20,23-octaoxa-26-azahentriacontane-31-oic acid, COCCOCCOCCOCCOCCOCCOCCOCCNC(=O)CC[C@H](N[*:1])C(=O)[*:2]; F3COO(PEG4Me)″ = 3-carboxy-Phe with the carboxyl amidated by a methyl-capped PEG4 amine, COCCOCCOCCOCCNC(=O)c1cccc(C[C@H](N[*:1])C(=O)[*:2])c1; E(PEG4Me) = (S)-18-amino-15-oxo-2,5,8,11-tetraoxa-14-azanonadecane-19-oic acid, COCCOCCOCCOCCNC(=O)CC[C@H](N[*:1])C(=O)[*:2]; MeF4COO(PEG4Me) = N-methyl Phe with 4-carboxamide to PEG4Me amine, COCCOCCOCCOCCNC(=O)c1ccc(C[C@@H](C(=O)[*:2])N(C)[*:1])cc1; F4aao = (S)-2-amino-3-(4-(carboxymethoxy)phenyl)propanoic acid, O=C([C@H](Cc1ccc(OCC(=O)[*:3])cc1)N[*:1])[*:2]; MePEG4c = K(MePEG4c) = (S)-20-amino-14-oxo-2,5,8,11-tetraoxa-15-azahenicosane-21-oic acid, COCCOCCOCCOCCC(=O)*; Phe(4-OMe) = F4OMe = (S)-2-amino-3-(4-methoxyphenyl)propanoic acid, COc1ccc(C[C@H](N[*:1])C(=O)[*:2])cc1; Trp(1-CH2CO) = O=C([C@H](Cc1cn(CC(=O)[*:3])c2ccccc12)N[*:1])[*:2]; MeF3COO(PEG4Me)″ = N-methyl analogue of F3COO(PEG4Me); Trp(5-Cl) = N[C@@H](Cc1c[nH]c2ccc(Cl)cc12)C(=O)O; Phe(3-COOH) = N[C@@H](Cc1cccc(C(=O)O)c1)C(=O)O; Trp(7-aza) = N[C@@H](Cc1c[nH]c2ncccc12)C(=O)O; NMePhe(3-Cl) = CN[C@@H](Cc1cccc(Cl)c1)C(=O)O; NMePhe(4-F) = CN[C@@H](Cc1ccc(F)cc1)C(=O)O; NMeW = CN[C@@H](Cc1c[nH]c2ccccc12)C(=O)O; NMeY = CN[C@@H](Cc1ccc(O)cc1)C(=O)O; NMeR = CN[C@@H](CCCNC(=N)N)C(=O)O; NMeF = CN[C@@H](Cc1ccccc1)C(=O)O; NMeA = CN[C@@H](C)C(=O)O

B1: 894_0256 (peptide)
peptide: {CH2CO}-AV[NMePhe(4-F)]V[Trp(5-Cl)]NYYIIR[dR]FYC-NH2
modifications: thioether N-15; not fully specified (residue 14); also: linker PEG4c, place not given here
B2: 894_0252 (peptide)
peptide: {CH2CO}-AV[NMeF]V[Trp(5-Cl)]NYYIIR[dR]FYC-NH2
modifications: thioether N-15; not fully specified (residue 14); also: linker PEG4c, place not given here
B3: 894_0260 (peptide)
peptide: {CH2CO}-AV[NMePhe(4-F)]V[NMeW]NYYIIR[dR]FYC-NH2
modifications: thioether N-15; not fully specified (residue 14); also: linker PEG4c, place not given here
B4: 849_0418 (peptide)
peptide: {CH2CO}-AV[NMePhe(3-Cl)]V[Trp(7-aza)]NY[F4aao]IIERFYC-NH2
modifications: thioether N-15; not fully specified (residues 11, 14); also: linker PEG4c, place not given here

biological target: T1, human transferrin receptor (hTfR) (human, UniProt P02786 89-760); assay: SPR; B = KD 1-100 nM
T1 construct: used as 0.5 uM hTfR dimer solution, immobilised on an NTA sensor chip (Ni capture plus EDC/NHS coupling); also called human TfR; TfR1
Description: NTA sensor chip (Global Life Sciences Technologies Japan K.K.) was inserted into BiacoreT200 (Global Life Sciences Technologies Japan K.K.), then the priming operation was performed three times by using running buffer containing: 10 mM HEPES pH 8.0 (Nacalai Tesque, Inc.), 150 mM NaCl (Nacalai Tesque, Inc.), 0.05% Tween 20 (Nacalai Tesque, Inc.), 0.1% BSA (SIGMA-ALDRICH) and 1.0% DMSO (FUJIFILM Wako Pure Chemical Corporation), and equilibrated at a flow rate of 30 μL/min. 350 mM EDTA solution was reacted at a flow rate of 10 μL/min for 60 seconds, 0.5 mM […] solution (Kishida Chemical Co., Ltd.) was reacted at a flow rate of 10 μL/min for 60 seconds, and then the NTA sensor chip was washed with 3 mM EDTA solution (Nacalai Tesque, Inc.) at a flow rate of 10 μL/min for 60 seconds. After mixing 50 μL each of 60 mM EDC solution (Global Life Science Technologies Japan K.K.) and 650 mM NHS solution (Global Life Science Technologies Japan K.K.), the reaction was carried out at a flow rate of 10 μL/min for 420 seconds. 150 μL of 0.5 μM hTfR dimer solution was prepared by dilution with running buffer and reacted at a flow rate of 10 μL/min for 300 seconds to immobilize hTfR on the NTA sensor chip. For the human transferrin receptor (hTfR), recombinant hTfR described in Example 2 of WO2018/124121 was used. After immobilization, capping was performed by reacting with 1.0 M ethanolamine solution (Global Life Sciences Technologies Japan K.K.) at a flow rate of 10 μL/min for 420 seconds. Peptide lysate prepared in DMSO solution to 10 mM was diluted with running buffer to be a final concentration of 10 μM peptide lysate, then peptide solutions of 100 nM, 50 nM, 25 nM, 10 nM, and 5 nM were prepared. Using the above samples, the kinetics of the peptide against hTfR was obtained by SPR measurement.
The kinetic evaluation model was single-cycle kinetics, and curve fitting was performed using Biacore T200 Evaluation Software Version 3.0 (Global Life Science Technologies Japan K.K.). The binding of the peptide to hTfR was evaluated by performing curve fitting on the obtained sensorgram by least squares method and obtaining the KD value.

T1 sequence (P02786 89-760 limits assumed): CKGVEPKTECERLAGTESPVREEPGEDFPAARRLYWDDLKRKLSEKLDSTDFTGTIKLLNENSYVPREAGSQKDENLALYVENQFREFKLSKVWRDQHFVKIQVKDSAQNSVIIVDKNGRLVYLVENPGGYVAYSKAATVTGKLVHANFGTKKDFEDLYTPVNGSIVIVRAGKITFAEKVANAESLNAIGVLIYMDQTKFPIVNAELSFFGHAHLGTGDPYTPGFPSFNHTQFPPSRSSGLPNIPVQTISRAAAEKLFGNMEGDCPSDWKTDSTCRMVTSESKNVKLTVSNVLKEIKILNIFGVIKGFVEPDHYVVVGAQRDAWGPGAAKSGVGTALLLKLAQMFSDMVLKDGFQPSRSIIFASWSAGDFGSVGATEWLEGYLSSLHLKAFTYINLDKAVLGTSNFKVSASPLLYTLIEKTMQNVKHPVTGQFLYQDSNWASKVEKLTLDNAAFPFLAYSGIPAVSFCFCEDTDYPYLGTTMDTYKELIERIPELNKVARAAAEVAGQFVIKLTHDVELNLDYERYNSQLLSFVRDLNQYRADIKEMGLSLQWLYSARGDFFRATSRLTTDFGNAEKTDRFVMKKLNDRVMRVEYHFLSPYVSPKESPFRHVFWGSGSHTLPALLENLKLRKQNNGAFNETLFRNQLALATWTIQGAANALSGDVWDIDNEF

KD | Binder
1 to 100 nM | {CH2CO}-AV[NMePhe(3-Cl)]VWNY[F4aao]IIQR[F3COO(PEG4Me)″][MeF4COO(PEG4Me)″]C-NH2 (thioether N-15; also: linker PEG4c, attachment site not given here) [849_0412]
1 to 100 nM | B1
1 to 100 nM | {CH2CO}-AV[NMePhe(3-Cl)]V[Trp(1-CH2CO)]NY[F4aao]II[E(PEG8Me)]RF[NMeY]C (thioether N-15; not fully specified (C-terminus)) [894_0298]
1 to 100 nM | B2
1 to 100 nM | {CH2CO}-AV[NMePhe(4-F)]V[Trp(5-Cl)]NYYII[NMeR]K(MePEG4c)FYC-NH2 (thioether N-15; not fully specified (residue 14)) [894_0267]
1 to 100 nM | {CH2CO}-AV[NMePhe(3-Cl)]V[Trp(7-aza)]NY[F4aao]II[E(PEG4Me)]R[F3COO(PEG4Me)][NMeY]C-NH2 (thioether N-15; also: linker PEG4c, attachment site not given here) [849_0415]
1 to 100 nM | {CH2CO}-AV[NMeF]VWNYYIIR[dR]FYC-NH2 (thioether N-15; not fully specified (residue 14); also: linker PEG4c) [894_0282, listing 1 of 2 here]
1 to 100 nM | {CH2CO}-AV[NMeF]VWNYYIIR[dR]FYC-NH2 (thioether N-15; not fully specified (residue 14); also: linker PEG4c) [894_0282, listing 2 of 2 here]
1 to 100 nM | {CH2CO}-AV[NMePhe(3-Cl)]V[Trp(1-CH2CO)]NY[F4aao]II[E(PEG8Me)]R[Phe(3-COOH)][NMeY]C (thioether N-15; not fully specified (C-terminus)) [894_0301]
1 to 100 nM | {CH2CO}-AV[NMePhe(4-F)]V[NMeW]NYYIIK(MePEG4c″)[dR]FYC-NH2 (thioether N-15; not fully specified (residue 14)) [894_0269]
1 to 100 nM | {CH2CO}-AV[NMePhe(3-Cl)]VWNY[F4aao]IIQR[F3COO(PEG4Me)][MeF3COO(PEG4Me)″]C-NH2 (thioether N-15; also: linker G-ds-ds-ds-ds-ds, attachment site not given here) [849_0414]
1 to 100 nM | {CH2CO}-AV[NMePhe(3-Cl)]V[Trp(1-CH2CO)]NY[F4aao]IIR[E(PEG8Me)]F[NMeY]C (thioether N-15; not fully specified (C-terminus)) [894_0299]
1 to 100 nM | {CH2CO}-AV[NMeF]VWNYYIIRK(MePEG4c)FYC-NH2 (thioether N-15; not fully specified (residue 14)) [894_0264]
1 to 100 nM | {CH2CO}-[NMeA]V[NMePhe(3-Cl)]V[NMeW]NY[Phe(4-OMe)]IIR[dA]FYC-NH2 (thioether N-15; not fully specified (residue 14); also: linker PEG4c) [894_0287]
1 to 100 nM | B3
1 to 100 nM | {CH2CO}-AV[NMeF]VWNYYIIK(MePEG4c)RFYC-NH2 (thioether N-15; not fully specified (residue 14)) [894_0263]
1 to 100 nM | B4
1 to 100 nM | {CH2CO}-AV[NMePhe(3-Cl)]V[Trp(7-aza)]NY[F4aao]IIQR[F3COO(PEG4Me)][MeF4COO(PEG4Me)]C-NH2 (thioether N-15; also: linker PEG4c, attachment site not given here, also called 894_0416) [849_0416]
1 to 100 nM | {CH2CO}-AV[NMeF]V[Trp(1-CH2CO)]NY[F4aao]IIRRYYC-NH2 (thioether N-15; not fully specified (residue 14); also: linker PEG4c) [894_0297]
1 to 100 nM | {CH2CO}-AV[NMePhe(4-F)]V[Trp(5-Cl)]NY[Phe(4-OMe)]II[NMeR]K(MePEG4c)FYC-NH2 (thioether N-15; not fully specified (residue 14)) [894_0268]
1 to 100 nM | {CH2CO}-AV[NMePhe(4-F)]V[NMeW]NY[Phe(4-OMe)]IIK(MePEG4c″)[dR]FYC-NH2 (thioether N-15; not fully specified (residue 14)) [894_0270]
1 to 100 nM | {CH2CO}-AV[NMePhe(3-Cl)]VWNY[F4aao]IIQR[F3COO(PEG4Me)″][MeF3COO(PEG4Me)]C-NH2 (thioether N-15; also: linker PEG4c, attachment site not given here) [849_0413]
1 to 100 nM | {CH2CO}-AV[NMeF]VWNYYII[NMeR]RFYC-NH2 (thioether N-15; not fully specified (residue 14); also: linker PEG4c) [894_0284, listing 1 of 2 here]
1 to 100 nM | {CH2CO}-AV[NMePhe(4-F)]V[NMeW]NYYII[NMeR]K(MePEG4c″)FYC-NH2 (thioether N-15; not fully specified (residue 14)) [894_0271]
1 to 100 nM | {CH2CO}-AV[NMeF]VWNY[F4aao]IIRRYYC-NH2 (thioether N-15; not fully specified (residue 14); also: linker PEG4c) [894_0296]
1 to 100 nM | {CH2CO}-AV[NMePhe(4-F)]V[NMeW]NY[Phe(4-OMe)]II[NMeR]K(MePEG4c″)FYC-NH2 (thioether N-15; not fully specified (residue 14)) [894_0272]
1 to 100 nM | {CH2CO}-AV[NMePhe(3-Cl)]V[Trp(7-aza)]NY[F4aao]IIQR[F3COO(PEG4Me)][MeF3COO(PEG4Me)″]C-NH2 (thioether N-15; also: linker PEG4c, place not given here) [849_0417]
1 to 100 nM | {CH2CO}-AV[NMeF]VWNYYII[NMeR]RFYC-NH2 (thioether N-15; not fully specified (residue 14); also: linker PEG4c) [894_0284, listing 2 of 2 here]
